Substrate: CC/C(=C(\c1ccc(O)cc1)c1ccc(OCCN(C)C)cc1)c1ccccc1
Test: Initial rate kinetics of TAM sulfation
Format: biochemical, human
Details: other: TAM as substrate, pH 7.2, 25.0 °C

B1: SULT1A1 (Homo sapiens) (protein)
chain: MELIQDTSRPPLEYVKGVPLIKYFAEALGPLQSFQARPDDLLISTYPKSGTTWVSQILDMIYQGGDLEKCHRAPIFMRVPFLEFKAPGIPSGMETLKDTPAPRLLKTHLPLALLPQTLLDQKVKVVYVARNAKDVAVSYYHFYHMAKVHPEPGTWDSFLEKFMVGEVSYGSWYQHVQEWWELSRTHPVLYLFYEDMKENPKREIQKILEFVGRSLPEETVDFVVQHTSFKEMKKNPMTNYTTVPQEFMDHSISPFMRKGMAGDWKTTFTVAQNERFDADYAEKMAGCSLSFRSEL
kcat (E·(PAP)2 form, [PAPS] 250 μM): 11 s⁻¹ | Km (E·PAP form, [PAPS] 4.0 μM): 14 (1.0) μM | kcat (E·PAP form, [PAPS] 4.0 μM): 2 s⁻¹
